Reference: patent US20090123480A1 (REGENTS OF THE UNIVERSITY OF MICHIGAN, published 2009)
Non-standard residues stand in square brackets, D forms with d. No end group written: not given here. *: point of attachment. 5FAM = O=C1OC2(c3ccc(O)cc3Oc3cc(O)ccc32)c2ccc(C(=O)*)cc21; Abu = CC[C@H](N)C(=O)O

What was measured:
[1] = biological target: human XIAP protein (residues 120-356) (human) (UniProt P98170); experiment: fluorescence polarization competition against the Smac2-F tracer
caspase-7 = caspase-7 (UniProt P55210); experiment: cell-based or functional assay
caspase-7, sequence (P55210 24-303 limits assumed): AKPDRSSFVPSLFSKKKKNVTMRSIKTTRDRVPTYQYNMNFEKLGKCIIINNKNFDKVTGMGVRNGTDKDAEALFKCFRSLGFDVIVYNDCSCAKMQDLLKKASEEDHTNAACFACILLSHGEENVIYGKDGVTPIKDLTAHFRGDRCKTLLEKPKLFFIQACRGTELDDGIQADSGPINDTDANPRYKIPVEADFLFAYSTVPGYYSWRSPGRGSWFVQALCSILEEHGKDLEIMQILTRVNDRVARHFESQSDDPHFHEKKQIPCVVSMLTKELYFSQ

caspase-3 = caspase-3 (UniProt P42574); experiment: cell-based or functional assay
caspase-3, sequence (P42574 29-277 limits assumed): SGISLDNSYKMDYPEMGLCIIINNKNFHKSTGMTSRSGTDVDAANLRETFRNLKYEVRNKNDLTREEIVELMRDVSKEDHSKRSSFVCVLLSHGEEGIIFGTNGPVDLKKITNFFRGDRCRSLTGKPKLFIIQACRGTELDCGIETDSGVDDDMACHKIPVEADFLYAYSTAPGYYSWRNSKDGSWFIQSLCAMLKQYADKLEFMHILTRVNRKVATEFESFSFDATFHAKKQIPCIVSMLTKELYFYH

[2] = biological target: T1, recombinant XIAP BIR3 protein of human XIAP (residues 241-356) fused to His-tag (human, UniProt P98170 241-356); experiment: fluorescence polarization, direct binding of the labelled peptide
T1 construct: range 241-356; not shown: His-tag
T1 sequence (P98170 241-356 limits assumed): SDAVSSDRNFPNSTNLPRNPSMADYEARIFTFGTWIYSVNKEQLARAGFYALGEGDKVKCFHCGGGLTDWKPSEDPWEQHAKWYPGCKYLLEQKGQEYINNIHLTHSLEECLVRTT

human XIAP protein (residues 120-356) (human), sequence (P98170 120-356 limits assumed): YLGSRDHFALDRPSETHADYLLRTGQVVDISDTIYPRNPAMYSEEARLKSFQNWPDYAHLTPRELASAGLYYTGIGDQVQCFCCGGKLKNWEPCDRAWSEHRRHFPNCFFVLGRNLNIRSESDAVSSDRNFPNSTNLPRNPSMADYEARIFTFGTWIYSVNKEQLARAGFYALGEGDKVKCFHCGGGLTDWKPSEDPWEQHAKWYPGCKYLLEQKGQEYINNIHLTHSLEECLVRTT

## natural Smac peptide AVPI (SEQ ID NO: 1)
[1]
  fold less potent than the small molecule SH-164 (IC50 […] nM) in the competitive binding assay: > 5000 fold

## human XIAP protein (residues 120-356) (from UniProt P98170 120-356)
caspase-7
  inhibition of caspase-3/-7 activity, cell-free functional assay: 50 nM
caspase-3
  inhibition of caspase-3/-7 activity, cell-free functional assay: 50 nM

B1: mutated Smac peptide AbuRPF-K-(5-Fam)-NH2 (termed SM5F) (peptide)
peptide: [Abu]RPFK(5FAM)-NH2
modifications: N-terminus assumed
SMILES: CC[C@H](N)C(=O)N[C@@H](CCCNC(=N)N)C(=O)N1CCC[C@H]1C(=O)N[C@@H](Cc1ccccc1)C(=O)N[C@@H](CCCCNC(=O)c1ccc2c(c1)C(=O)OC21c2ccc(O)cc2Oc2cc(O)ccc21)C(N)=O
notes: Fluorescent tracer of the XIAP BIR3 fluorescence polarization assay; also called SM5F peptide
[2]
  Kd: 17.9 nM
